Experimental data taken from article doi:10.1101/680314 (bioRxiv, 2019).
Positions count from the first letter of the chain named.

B1: Ska1-Ska2-Ska3 6A complex (complex)
chain 1: MASSDLEQLCSHVNEKIGNIKKTLSLRNCGQEPTLKTVLNKIGDEIIVINELLNKLELEIQYQEQTNNSLKELCESLEEDYKDIEHLKENVPSHLPQVTVTQSCVKGSDLDPEEPIKVEEPEPVKKPPKEQRSIKEMPFITCDEFNGVPSYMKSRLTYNQINDVIKEINKAVISKYKILHQPKKSMNSVTRNLYHRFIDEETKDTKGRYFIVEADIKEFTTLKADKKFHVLLNILRHCRRLSEVRGGGLTRYVIT
chain 2: MEAEVDKLELMFQKAESDLDYIQYRLEYEIKTNHPDSASEKNPVTLLKELSVIKSRYQTLYARFKPVAVEQKESKSRICATVKKTMNMIQKLQKQTDLELSPLTKEEKTAAEQFKFHMPDL
chain 3: MDPIRSFCGKLRSLASTLDCETARLQRALDGEESDFEDYPMRILYDLHSEVQTLKDDVNILLDKARLENQEGIDFIKATKVLMEKNSMDIMKIREYFQKYGYSPRVKKNSVHEQEAINSDPELSNCENFQKTDVKDDLSDPPVASSCISEKSPRSPQLSDFGLERYIVSQVLPNPPQAVNNYKEEPVIVTPPTKQSLVKVLKAPKCALKMDDFECVAPKLEHFGISEYTMCLNEDYTMGLKNARNNKSEEAIDTESRLNDNVFATPSPIIQQLEKSDAEYTNAPLVPTFCAPGLKIPSTKNSIALVSTNYPLSKTNSSSNDLEVEDRTSLVLNSDTCFENLTDPSSPTISSYENLLRAPAPPEVTKIPEDILQLLSKYNSNLATPIAIKAVPPSKRFLKHGQNIRDVSNKEN
B2: Ska1-Ska2-Ska3 6A complex treated with Cdk1/Cyclin B1 (complex)
chain 1: B1 chain 1
chain 2: B1 chain 2
chain 3: B1 chain 3
modifications: treated with Cdk1/Cyclin B1 plus ATP; phosphorylated residues not stated
B3: Ska1-Ska2-Ska3 6D complex (complex)
chain 1: B1 chain 1
chain 2: B1 chain 2
chain 3: B1 chain 3 with A203D, A217D, A283D, A291D, A358D, A360D

What was measured:
[1] = biological target: GST-Nuf2-Ndc80 complex (UniProt Q9BZD4;O14777); assay: pull-down
[2] = biological target: Nuf2-Ndc80 complex (UniProt Q9BZD4;O14777); assay: SEC
Sequence of Nuf2-Ndc80 complex (Q9BZD4 whole entry, chain 1 of 2): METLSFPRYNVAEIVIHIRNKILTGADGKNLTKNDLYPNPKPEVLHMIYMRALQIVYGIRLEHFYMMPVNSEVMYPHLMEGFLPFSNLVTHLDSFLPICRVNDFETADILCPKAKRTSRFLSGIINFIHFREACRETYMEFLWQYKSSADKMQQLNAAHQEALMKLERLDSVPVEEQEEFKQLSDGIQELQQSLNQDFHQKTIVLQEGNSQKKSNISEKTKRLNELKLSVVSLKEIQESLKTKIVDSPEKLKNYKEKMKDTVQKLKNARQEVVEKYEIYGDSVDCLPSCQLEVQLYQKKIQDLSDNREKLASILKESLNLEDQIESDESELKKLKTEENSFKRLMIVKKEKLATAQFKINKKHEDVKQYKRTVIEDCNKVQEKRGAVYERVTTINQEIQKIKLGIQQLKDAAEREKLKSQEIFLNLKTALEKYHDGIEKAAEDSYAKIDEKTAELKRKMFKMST
Sequence of Nuf2-Ndc80 complex (O14777 whole entry, chain 2 of 2): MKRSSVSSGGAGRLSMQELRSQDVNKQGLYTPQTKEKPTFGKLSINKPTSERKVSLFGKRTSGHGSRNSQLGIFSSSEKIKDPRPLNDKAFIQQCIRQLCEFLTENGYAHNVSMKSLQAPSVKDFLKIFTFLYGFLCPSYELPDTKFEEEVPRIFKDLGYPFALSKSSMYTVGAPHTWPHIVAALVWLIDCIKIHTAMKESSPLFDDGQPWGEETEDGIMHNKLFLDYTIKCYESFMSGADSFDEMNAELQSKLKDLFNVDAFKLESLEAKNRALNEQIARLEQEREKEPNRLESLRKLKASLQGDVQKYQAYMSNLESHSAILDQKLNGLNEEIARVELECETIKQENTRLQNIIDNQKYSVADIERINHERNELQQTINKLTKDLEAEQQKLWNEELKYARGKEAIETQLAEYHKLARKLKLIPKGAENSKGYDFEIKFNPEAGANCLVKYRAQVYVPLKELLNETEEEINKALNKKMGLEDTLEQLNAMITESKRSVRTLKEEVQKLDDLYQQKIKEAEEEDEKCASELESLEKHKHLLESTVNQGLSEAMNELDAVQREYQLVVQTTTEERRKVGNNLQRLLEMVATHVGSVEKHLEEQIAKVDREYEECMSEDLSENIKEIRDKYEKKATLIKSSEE

Sequence of GST-Nuf2-Ndc80 complex (Q9BZD4 whole entry, chain 1 of 2): as the sequence (Q9BZD4 whole entry, chain 1 of 2) above
Sequence of GST-Nuf2-Ndc80 complex (O14777 whole entry, chain 2 of 2): as the sequence (O14777 whole entry, chain 2 of 2) above

Binder | binding result [1] | binding result [2]
B1 | binds | 
B2 | binds | 
B3 | binds | binds
